Measurements taken from patent US20220119513A1 (ZOETIS SERVICES, published 2022).

T1: canine TGFβ2 (canine, UniProt A0A8I3PZZ6 331-442)
T1 sequence: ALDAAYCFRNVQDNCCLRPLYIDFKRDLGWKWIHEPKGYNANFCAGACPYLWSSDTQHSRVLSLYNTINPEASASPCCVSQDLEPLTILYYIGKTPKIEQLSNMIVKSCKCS

T2: canine TGFβ3 (canine, UniProt A0A8I3S1P1 346-457)
T2 sequence: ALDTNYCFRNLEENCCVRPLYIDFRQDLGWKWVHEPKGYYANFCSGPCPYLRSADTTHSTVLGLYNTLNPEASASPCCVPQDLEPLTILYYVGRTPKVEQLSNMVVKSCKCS

T3: TGFβ3 (R&D Systems) (Homo sapiens (Human), UniProt P10600 301-412, Active TGFβ3 is a disulfide-linked homodimer of this chain; one copy is given.)
T3 construct: also called TGFB3
T3 sequence: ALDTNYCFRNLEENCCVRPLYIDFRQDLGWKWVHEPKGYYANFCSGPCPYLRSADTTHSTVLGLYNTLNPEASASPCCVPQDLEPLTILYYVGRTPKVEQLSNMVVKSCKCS

B1: Can04H09 VH1/VL1 (antibody, V domains shown)
VH: EVQLVQSGAEVKKPGASVKVSCKTSGYTFISSWMNWVRQAPGAGLDWMGQIYPGDGDTNYNGKFKGRVTLTADTSTSTAYMELSSLRAGDIAVYYCARHYDGSTDYWGQGTLVTVSS
VL: DIVMTQNPLSLSVSPGETASISCRASENIYSNLAWFRQKPGQSPQRLIYAATNLADGVPDRFSGSGSGTDFTLRISRVEADDTGVYYCQHFWGTPYTFGQGTK
B2: Can04H09 VH2/VL1 (antibody, V domains shown)
VH: EVQLVQSAAEVKKPGASVKVSCKTSGYSFTSSWMNWVQQAPGKGLDWMGQIYPGDGDTNYNGKFKGRVTLTADKSTSTAYMELSSLRSEDAAVYYCARHYDGSTDYWGQGTLVTVSS
VL: DIVMTQNPLSLSVSPGETASISCRASENIYSNLAWFRQKPGQSPQRLIYAATNLADGVPDRFSGSGSGTDFTLRISRVEADDTGVYYCQHFWGTPYTFGQGTK
B3: chi SL501 (antibody)
heavy: EVQLVESGGGVVQPGRSLRLSCAASGFTFSSYGMHWVRQAPGKELEWVAVISYDGSIKYYADSVKGRFTISRDNSKNTLYLQMNSLRAEDTAVYYCARTGEYSGYDTDPQYSWGQGTTVTVSSASTTAPSVFPLAPSCGSTSGSTVALACLVSGYFPEPVTVSWNSGSLTSGVHTFPSVLQSSGLYSLSSMVTVPSSRWPSETFTCNVAHPASKTKVDKPVPKRENGRVPRPPDCPKCPAPEAAGAPSVFIFPPKPKDTLLIARTPEVTCVVVDLDPEDPEVQISWFVDGKQMQTAKTQPREEQFNGTYRVVSVLPIGHQDWLKGKQFTCKVNNKALPSPIERTISKARGQAHQPSVYVLPPSREELSKNTVSLTCLIKDFFPPDIDVEWQSNGQQEPESKYRTTPPQLDEDGSYFLYSKLSVDKSRWQRGDTFICAVMHEALHNHYTQESLSHSPGK
light: EIVLTQSPSSLSASVGDRVTITCRASQGIGDDLGWYQQKPGKAPILLIYGTSTLQSGVPSRFSGSGSGTDFTLTINSLQPEDFATYYCLQDSNYPLTFGGGTKRNDAQPAVYLFQPSPDQLHTGSASVVCLLNSFYPKDINVKWKVDGVIQDTGIQESVTEQDKDSTYSLSSTLTMSSTEYLSHELYSCEITHKSLPSTLIKSFQRSEC
notes: also called Chimera-SL501-VH/Chimera-SL501-VL
B4: fel-TGFβ1-Spec (antibody)
heavy: DVQLVESGGDLVKPGGSLRLTCVASGFTFSSYGMHWVRQAPGKELEWVAVISYDGSIKYYADAVKGRFTISRDNAKNTLYLQMNSLKTEDTATYYCARTGEYSGYDTDPQYSWGQGTTVTVSSASTTAPSVFPLAPSCGTTSGATVALACLVLGYFPEPVTVSWNSGALTSGVHTFPAVLQASGLYSLSSMVTVPSSRWLSDTFTCNVAHPPSNTKVDKTVRKTDHPPGPKPCDCPKCPPPEAAGAPSIFIFPPKPKDTLSISRTPEVTCLVVDLGPDDSDVQITWFVDNTQVYTAKTSPREEQFNSTYRVVSVLPILHQDWLKGKEFKCKVNSKSLPSPIERTISKAKGQPHEPQVYVLPPAQEELSRNKVSVTCLIKSFHPPDIAVEWEITGQPEPENNYRTTPPQLDSDGTYFVYSKLSVDRSHWQRGNTYTCSVSHEALHSHHTQKSLTQSPGK
light: EIQMTQSPSSLSASPGDRVTITCRASQGIGDDLGWYQQKPGKVPKLLIYGTSTLQSGVPSRFSGSGSGTDFTLTISSLEPEDAATYYCLQDSNYPLTFGGGTKRSDAQPSVFLFQPSLDELHTGSASIVCILNDFYPKEVNVKWKVDGVVQNKGIQESTTEQNSKDSTYSLSSTLTMSSTEYQSHEKFSCEVTHKSLASTLVKSFQRSECQRE
notes: also called FelSL501-VH3-9/FelSL501-VL1-1
B5: fel-TGFβ1_hetero-chimera-2 (antibody)
heavy: EVQLVESGGGVVQPGRSLRLSCAASGFTFSSYGMHWVRQAPGKELEWVAVISYDGSIKYYADSVKGRFTISRDNSKNTLYLQMNSLRAEDTAVYYCARTGEYSGYDTDPQYSWGQGTTVTVSSASTTAPSVFPLAPSCGTTSGATVALACLVLGYFPEPVTVSWNSGALTSGVHTFPAVLQASGLYSLSSMVTVPSSRWLSDTFTCNVAHPPSNTKVDKTVRKTDHPPGPKPCDCPKCPPPEAAGAPSIFIFPPKPKDTLSISRTPEVTCLVVDLGPDDSDVQITWFVDNTQVYTAKTSPREEQFNSTYRVVSVLPILHQDWLKGKEFKCKVNSKSLPSPIERTISKAKGQPHEPQVYVLPPAQEELSRNKVSVTCLIKSFHPPDIAVEWEITGQPEPENNYRTTPPQLDSDGTYFVYSKLSVDRSHWQRGNTYTCSVSHEALHSHHTQKSLTQSPGK
light: EIQMTQSPSSLSASPGDRVTITCRASQGIGDDLGWYQQKPGKVPKLLIYGTSTLQSGVPSRFSGSGSGTDFTLTISSLEPEDAATYYCLQDSNYPLTFGGGTKRSDAQPSVFLFQPSLDELHTGSASIVCILNDFYPKEVNVKWKVDGVVQNKGIQESTTEQNSKDSTYSLSSTLTMSSTEYQSHEKFSCEVTHKSLASTLVKSFQRSECQRE

Experiments:
canine TGFβ2 = molecular target: T1, canine TGFβ2; assay: SPR
canine TGFβ3 = molecular target: T2, canine TGFβ3; assay: SPR
canine TGFβ1 = canine TGFβ1 (canine, UniProt P54831 279-390, limits assumed); assay: SPR, TGFβ on chip
Chain of canine TGFβ1 (P54831 279-390 limits assumed): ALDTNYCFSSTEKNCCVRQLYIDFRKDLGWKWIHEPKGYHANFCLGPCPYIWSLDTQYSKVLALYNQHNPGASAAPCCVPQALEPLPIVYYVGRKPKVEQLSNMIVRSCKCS
Text: To avoid affinity differences associated with differential surface preparation that can occur when immobilizing antibodies to surfaces, TGFβ1, TGFβ2, and TGFβ3 (R&D Systems) were directly conjugated to the individual surface. Immobilization was obtained by amine coupling […] using N-hydroxysuccinimide (NHS)/1-Ethyl-3-(3-dimethylaminopropyl) carbodiimide (EDC) chemistry. Chips were quenched with ethanolamine and the affinity with which all candidate mAbs bound to the immobilized TGFβ was evaluated. All curves were fit to a 1:1 model. Affinities <10⁻¹¹ are below the lower limit of quantitation of detection for the instrument.

TGFβ1 (R&D Systems) [1] = molecular target: T4, TGFβ1 (R&D Systems); assay: SPR full titration
T4 construct: also called TGFB1
T4 sequence (P01137 279-390): as the sequence (P54831 279-390 limits assumed) above

TGFβ3 (R&D Systems) [2] = molecular target: T3, TGFβ3 (R&D Systems); assay: SPR full titration
TGFβ3 (R&D Systems) [3] = molecular target: T3, TGFβ3 (R&D Systems); assay: SPR
TGFβ1 (R&D Systems) [4] = molecular target: T4, TGFβ1 (R&D Systems); assay: cell-based or functional assay

Row | Binder | binding result (canine TGFβ2) | binding result (canine TGFβ3) | Kd (canine TGFβ1) [nM] | binding result (TGFβ3 (R&D Systems) [3]) | CMVIC pSmad-3, IC50 (TGFβ1 (R&D Systems) [4]) [nM] | further results
1 | B1 | no binding | no binding | 284 | – | – | –
2 | B2 | no binding | no binding | 2190 | – | – | –
3 | B3 | – | – | – | – | – | Kd (TGFβ1 (R&D Systems) [1]): 0.472 nM; binding result (TGFβ3 (R&D Systems) [2]): no binding
4 | B4 | – | – | – | no binding | 9.03 | –
5 | B5 | – | – | – | no binding | 11.9 | –
